Laboratory results taken from paper PMC11949052.

B1: C1-esterase inhibitor (C1-INH): N253A (protein)
parent chain: MASRLTLLTLLLLLLAGDRASSNPNATSSSSQDPESLQDRGEGKVATTVISKMLFVEPILEVSSLPTTNSTTNSATKITANTTDEPTTQPTTEPTTQPTIQPTQPTTQLPTDSPTQPTTGSFCPGPVTLCSDLESHSTEAVLGDALVDFSLKLYHAFSAMKKVETNMAFSPFSIASLLTQVLLGAGENTKTNLESILSYPKDFTCVHQALKGFTTKGVTSVSQIFHSPDLAIRDTFVNASRTLYSSSPRVLSNNSDANLELINTWVAKNTNNKISRLLDSLPSDTRLVLLNAIYLSAKWKTTFDPKKTRMEPFHFKNSVIKVPMMNSKKYPVAHFIDQTLKAKVGQLQLSHNLSLVILVPQNLKHRLEDMEQALSPSVFKAIMEKLEMSKFQPTLLTLPRIKVTTSQDMLSIMEKLEFFDFSYDLNLCGLTEDPDLQVSAMQHQTVLELTETGVEAAAASAISVARTLLVFEVQQPFLFVLWDQQHKFPVFMGRVYDPRA
B2: C1-esterase inhibitor (C1-INH): N352S (protein)
parent chain: B1 parent chain
B3: C1-esterase inhibitor (C1-INH): N352A (protein)
parent chain: B1 parent chain
B4: C1-esterase inhibitor (C1-INH): S255G (protein)
parent chain: B1 parent chain
B5: C1-esterase inhibitor (C1-INH): S354G (protein)
parent chain: B1 parent chain
B6: C1-esterase inhibitor (C1-INH): N238A (protein)
parent chain: B1 parent chain

Assay: ELISA and Western blot of HEK293T supernatants
Details: glycan lost; control: wild type

expression_or_secretion, percent_of_wt, no change:
B1
B2
B3
B4
B5
B6
